We go through 6 molecules from patent US20240158497A1 (published 2024).

For test [1], the target named is T1, Macaca Fascicularis LEPR extracellular domain expressed with a C-terminal myc-myc-hexahistidine tag (Macaca fascicularis, UniProt Q9MYL0 22-837 (rhesus entry)).
T1 construct: Monomeric reagent; the whole entry is the construct with its tag; also called mfLEPR-MMH
Briefly: SPR Biacore 4000, bsAb captured by anti-human Fc, 37 C. As to the method: (§1) Equilibrium dissociation constants (KD values) for LEPR and GP130 binding to purified anti-LEPR/GP130 bispecific antibodies were determined using a real-time surface plasmon resonance biosensor using a Biacore 4000 instrument. All binding studies were performed in 10 mM HEPES, 150 mM NaCl, 3 mM EDTA, and 0.05% v/v Surfactant Tween-20, pH 7.4 (HBS-ET) running buffer at 25° C. and 37° C. The Biacore sensor surface was first derivatized by amine coupling with a monoclonal mouse anti-human Fc antibody (GE, #BR-1008-39) to capture anti-LEPR/GP130 bispecific antibodies. […] Different concentrations of LEPR or GP130 reagents were first prepared in HBS-ET running buffer (100 nM-3.7 nM; 3-fold serial dilution) and were injected over anti-human Fc captured anti-LEPR/GP130 bispecific antibody surface for 4 minutes at a flow rate of 30 μL/minute, while the dissociation of bispecific antibody bound LEPR or GP130 reagent was monitored for 10 minutes in HBS-ET running buffer. Kinetic association (kₐ) and dissociation (kd) rate constants were determined by fitting the real-time binding sensorgrams to a 1:1 binding model with mass transport limitation using Scrubber 2.0c curve-fitting software. Binding dissociation equilibrium constants (KD) and dissociative half-lives (t ½) were calculated from the kinetic rate constants as: […]
(In general: In SPR one partner is held on a chip, and binding of the other changes the refractive index at the surface.)

In test [2] the target is T2, human LEPR extracellular domain expressed with a C-terminal myc-myc-hexahistidine tag (human, UniProt P48357 22-839).
T2 construct: Monomeric reagent; the whole entry is the construct with its tag; also called hLEPR-MMH; hLEPR.mmh
The description is as above. As to the method:
as §1

For test [3], the target named is T1, Macaca Fascicularis LEPR extracellular …. Briefly: SPR Biacore 4000, bsAb captured by anti-human Fc, 25 C. The method, then: as §1
In test [4] the target is T2, human LEPR extracellular domain …. Described as above. As to the method: as §1

B1: bsAb19757D (bispecific antibody, V domains shown)
VH 1: EVQLVESGGGLVQPGGSLRLSCVASGFTFNKYDMHWVRQTTGKGLEWVSGIDTDGDTYYPGSVKGRFTISRENAENSLYLQMNGLRVGDTAVYYCARWPWSGFYGAFDIWGQGTMVTVSS
VH 2: EVQLVESGGGVVRPGGSLRLSCTASGFTFDDYGMSWVRQAPGKGLEWVSGINWNGGRTEYADAVKGRFIISRDNAKNSLYLQMNSLRAEDTALYFCARTELRWDYWGQGTLVTVSS
VL: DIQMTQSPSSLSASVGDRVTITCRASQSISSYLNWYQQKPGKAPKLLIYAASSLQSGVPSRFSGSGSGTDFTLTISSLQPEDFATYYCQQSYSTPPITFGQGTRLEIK
notes: common light chain
On to B1, for which, in test [1], the “100 nM mfLEPR-MMH Bound (RU)” value came to 7 RU. In test [2], the “100 nM hLEPR-MMH Bound (RU)” value was 81 RU; the Kd (usually the concentration at which binding is half-saturated) was 19.1 nM; the koff (usually a measure of how fast the partners let go of each other) amounted to 0.000625 s⁻¹; the kon – broadly, the second-order rate constant of association – worked out at 32800 M⁻¹ s⁻¹. In test [2], the t½ (usually how long it takes for the measured level to halve) came out at 18 min. Also, in test [3], the “100 nM mfLEPR-MMH Bound (RU)” value stood at 7 RU. For the same molecule, in test [4], the “100 nM hLEPR-MMH Bound (RU)” value is 57 RU, the Kd worked out at 7.85 nM, the koff was 0.000162 s⁻¹ and the on-rate constant (kon) worked out at 20700 M⁻¹ s⁻¹. This molecule also registered a t½ in test [4] of 71 min.

B2: bsAb19758D (bispecific antibody, V domains shown)
VH 1: EVQLVESGGGLVQPGGSLRLSCVASGFTFNKYDMHWVRQTTGKGLEWVSGIDTDGDTYYPGSVKGRFTISRENAENSLYLQMNGLRVGDTAVYYCARWPWSGFYGAFDIWGQGTMVTVSS
VH 2: EVQLVESGGGLVQSGGSLRLSCAASGFTFSRYEMNWVRQAPGKGLEWVAYISNTGTTRDYSDSVKGRFTISRDNAKNSLYLQMSSLRVEDTAVYYCVREKFSGTSDWFDPWGQGTLVTVSS
VL: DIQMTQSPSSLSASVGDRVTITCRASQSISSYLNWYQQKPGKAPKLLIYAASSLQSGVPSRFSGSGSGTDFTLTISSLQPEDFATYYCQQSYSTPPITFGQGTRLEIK
notes: common light chain
For B2, the “100 nM mfLEPR-MMH Bound (RU)” value in test [1] was 5 RU. Moreover, in test [2], the “100 nM hLEPR-MMH Bound (RU)” value came out at 73 RU, binding was characterised by a dissociation constant (Kd) of 20.6 nM, the koff came out at 0.000663 s⁻¹ and the kon is 32300 M⁻¹ s⁻¹. Besides, the t½ in test [2] came out at 17 min. Moreover, in test [3], the “100 nM mfLEPR-MMH Bound (RU)” value came out at 9 RU, the Kd is 583 nM, the off-rate (koff) came to 0.0225 s⁻¹ and the on-rate constant (kon) turned out to be 38600 M⁻¹ s⁻¹. For the same molecule, the t½ in test [3] was determined as 0.5 min. Further, in test [4], the “100 nM hLEPR-MMH Bound (RU)” value was 54 RU, the dissociation constant Kd came to 10.3 nM, the koff came out at 0.000163 s⁻¹ and the kon amounted to 15900 M⁻¹ s⁻¹. The same molecule registered a t½ in test [4] of 71 min.

B3: bsAb19153D (bispecific antibody, V domains shown)
VH 1: QVQLVESGGGVVQPGRSLRLSCTASGFTFSSYAMYWVRQAPGKGLEWVSVIYYDGSYKYYADSVKGRFTISRDNSKNTLYLQMDSLRAEDTAVYYCASYNWNYWYFDFWGRGTLVTVSS
VH 2: QVQLVQSGAEVMKPGASVKVSCRASGYTFSSYDINWVRQAPGQGLEWMGWISTATGNTNYPQKVQGRVTMTTDTSTNTAYMELRSLRSDDTAVYYCTREGNSKGWLDPWGQGTLVTVSS
VL: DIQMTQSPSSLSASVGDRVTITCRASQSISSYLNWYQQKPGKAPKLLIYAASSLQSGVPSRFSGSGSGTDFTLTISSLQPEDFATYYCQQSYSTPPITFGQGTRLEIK
notes: common light chain
For B3, in test [1], the “100 nM mfLEPR-MMH Bound (RU)” value was 158 RU, the Kd is 8.81 nM, the koff was 0.00058 s⁻¹ and the on-rate (kon) is 65800 M⁻¹ s⁻¹. The molecule further registered a t½ in test [1] of 20 min. For the same molecule, in test [2], the “100 nM hLEPR-MMH Bound (RU)” value worked out at 65 RU; the affinity, expressed as Kd, was 19.7 nM; the koff was 0.000791 s⁻¹; the association rate constant (kon) is 40100 M⁻¹ s⁻¹. The same molecule showed a t½ in test [2] of 15 min. Besides, in test [3], the “100 nM mfLEPR-MMH Bound (RU)” value turned out to be 102 RU, the equilibrium dissociation constant (Kd) was 2.96 nM, the koff was found to be 0.000126 s⁻¹ and the on-rate (kon) came to 42600 M⁻¹ s⁻¹. Moreover, in test [3], the t½ was determined as 92 min. Further, in test [4], the “100 nM hLEPR-MMH Bound (RU)” value stood at 40 RU, binding was characterised by a dissociation constant (Kd) of 6.46 nM, the dissociation rate constant (koff) was determined as 0.000165 s⁻¹ and the association rate constant (kon) turned out to be 25500 M⁻¹ s⁻¹. In addition, the t½ in test [4] amounted to 70 min.

B4: bsAb19154D (bispecific antibody, V domains shown)
VH 1: QVQLVESGGGVVQPGRSLRLSCTASGFTFSSYAMYWVRQAPGKGLEWVSVIYYDGSYKYYADSVKGRFTISRDNSKNTLYLQMDSLRAEDTAVYYCASYNWNYWYFDFWGRGTLVTVSS
VH 2: QVQLQQSGPGQMKSSQTLTLTCAISGDSVSSNSAIWYWIRQSPSRGLEWLGRTKFRSKWYNDFALSMKSRITINPDTSKNQFSLHLNSVTPEDTAVYYCARYKWELYFDYWGQGTLVTVSS
VL: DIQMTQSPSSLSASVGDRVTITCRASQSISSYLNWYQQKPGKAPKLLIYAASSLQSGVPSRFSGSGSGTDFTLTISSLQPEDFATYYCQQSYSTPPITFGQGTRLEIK
notes: common light chain
In the case of B4, in test [1], the “100 nM mfLEPR-MMH Bound (RU)” value came out at 159 RU, the Kd was 5.64 nM, the koff was 0.000541 s⁻¹ and the on-rate (kon) was 96000 M⁻¹ s⁻¹. In test [1], this molecule came in with a t½ of 21 min. In test [2], the “100 nM hLEPR-MMH Bound (RU)” value stood at 65 RU, the Kd turned out to be 19.2 nM, the off-rate (koff) worked out at 0.000729 s⁻¹ and the kon was 37900 M⁻¹ s⁻¹. This molecule also gave a t½ in test [2] of 16 min. For the same molecule, in test [3], the “100 nM mfLEPR-MMH Bound (RU)” value is 102 RU, the Kd came out at 2.96 nM, the koff came out at 0.000121 s⁻¹ and the kon was found to be 40800 M⁻¹ s⁻¹. Besides, in test [3], the t½ came out at 96 min. Further, in test [4], the “100 nM hLEPR-MMH Bound (RU)” value is 40 RU, binding was put at a Kd of 7.95 nM, the off-rate (koff) turned out to be 0.00018 s⁻¹ and the kon stood at 22600 M⁻¹ s⁻¹. This molecule also showed a t½ in test [4] of 64 min.

B5: bsAb19156D (bispecific antibody, V domains shown)
VH 1: QVQLVESGGGVVQPGRSLRLSCTASGFTFSSYAMYWVRQAPGKGLEWVSVIYYDGSYKYYADSVKGRFTISRDNSKNTLYLQMDSLRAEDTAVYYCASYNWNYWYFDFWGRGTLVTVSS
VH 2: QVQLVESGGGLVKPGGSLRLSCAASGFTFSDYYMTWIRQTPGKGLDWVSYISSSGTNKYNADSVKGRFTISRDNAKNSLYLQMNSLRAEDTAVYYCVRDPPWGMDVWGQGTTVTVSS
VL: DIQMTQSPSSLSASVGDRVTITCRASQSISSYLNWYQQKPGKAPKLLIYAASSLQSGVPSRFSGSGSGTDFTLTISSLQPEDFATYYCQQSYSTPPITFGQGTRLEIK
notes: common light chain
Consider B5, for which, in test [1], the “100 nM mfLEPR-MMH Bound (RU)” value was 148 RU, the Kd was 5.88 nM, the off-rate constant (koff) amounted to 0.000567 s⁻¹ and the on-rate constant (kon) is 96400 M⁻¹ s⁻¹. The t½ in test [1] is 20 min. Besides, in test [2], the “100 nM hLEPR-MMH Bound (RU)” value came out at 60 RU, the dissociation constant (Kd) is 23 nM, the koff stood at 0.000842 s⁻¹ and the kon was determined as 36600 M⁻¹ s⁻¹. The molecule also registered a t½ in test [2] of 14 min. Besides, in test [3], the “100 nM mfLEPR-MMH Bound (RU)” value was 97 RU, the Kd stood at 3.27 nM, the koff turned out to be 0.000132 s⁻¹ and the association rate constant (kon) was 40400 M⁻¹ s⁻¹. For the same molecule, in test [3], the t½ is 87 min. In test [4], the “100 nM hLEPR-MMH Bound (RU)” value came to 39 RU, the dissociation constant Kd was 7.11 nM, the koff turned out to be 0.000164 s⁻¹ and the kon worked out at 23100 M⁻¹ s⁻¹. The molecule also had a t½ in test [4] of 70 min.

B6: bsAb19155D (bispecific antibody, V domains shown)
VH 1: QVQLVESGGGVVQPGRSLRLSCTASGFTFSSYAMYWVRQAPGKGLEWVSVIYYDGSYKYYADSVKGRFTISRDNSKNTLYLQMDSLRAEDTAVYYCASYNWNYWYFDFWGRGTLVTVSS
VH 2: EVQLVESGGGLVQPGGSLRLSCAASGFTFSTYWMNWVRQAPGKGLEWVANIKEDGSEKYYVDSVKGRFTISRDNAKNSLYLQMNSLRAEDTAVYYCAREGFGVVTYIWGQGTMVTVSS
VL: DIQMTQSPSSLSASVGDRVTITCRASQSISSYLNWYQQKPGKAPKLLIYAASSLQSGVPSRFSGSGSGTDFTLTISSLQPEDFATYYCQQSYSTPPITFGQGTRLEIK
notes: common light chain
Regarding B6, in test [1], the “100 nM mfLEPR-MMH Bound (RU)” value is 155 RU, the Kd worked out at 5.49 nM, the off-rate (koff) came out at 0.000565 s⁻¹ and the kon was found to be 103000 M⁻¹ s⁻¹. Besides, the t½ in test [1] was found to be 20 min. In test [2], the “100 nM hLEPR-MMH Bound (RU)” value was 63 RU, the dissociation constant Kd was 20 nM, the koff came to 0.000792 s⁻¹ and the association rate constant (kon) was 39700 M⁻¹ s⁻¹. Besides, the t½ in test [2] was found to be 15 min. In test [3], the “100 nM mfLEPR-MMH Bound (RU)” value amounted to 103 RU, binding was characterised by a dissociation constant (Kd) of 2.9 nM, the dissociation rate constant (koff) came out at 0.000122 s⁻¹ and the kon amounted to 42000 M⁻¹ s⁻¹. For the same molecule, the t½ in test [3] came out at 95 min. In addition, in test [4], the “100 nM hLEPR-MMH Bound (RU)” value stood at 40 RU; the affinity, expressed as Kd, was 6.36 nM; the off-rate constant (koff) came out at 0.000153 s⁻¹; the kon turned out to be 24000 M⁻¹ s⁻¹. This molecule displayed a t½ in test [4] of 76 min.
